Columns and labels:
[1] = target: Endogenous BAFF (human (endogenous in serum, CSF, cord blood)); assay: SEC; cord blood sera in Hepes pH 8.2, 30 mM NaCl, 10 ug/ml BSA; fractions lyophilized; ELISA at pH 5.5 and BAFFR:Fas reporter cells with antibody 2.81
[2] = target: Endogenous BAFF (human (endogenous in serum, CSF, cord blood)); assay: SEC; endogenous BAFF affinity-purified on atacicept from CSF or from serum of a CVID patient, SEC at pH 8.2; ELISA with capture at pH 5.5 and BAFFR:Fas reporter cells
[3] = target: Endogenous BAFF (human (endogenous in serum, CSF, cord blood)); assay: SEC; 8-fold concentrated pool of CSF of multiple sclerosis patients at pH 8.2, 30 mM NaCl; also after depletion on anti-APRIL mAb 104; ELISA with capture at pH 5.5 and BAFFR:Fas reporter cells
[4] = target: Endogenous BAFF (human (endogenous in serum, CSF, cord blood)); assay: SEC; BAFFR-deficient human serum on Superdex S200 Increase in Hepes buffer pH 8.2; BAFF activity of fractions read on BCMA:Fas reporter cells; fractions 15-17 pooled, concentrated and run again
[5] = target: Endogenous BAFF (human (endogenous in serum, CSF, cord blood)); assay: SEC; adult human sera (normal, CVID, BAFFR-deficient, BTK-deficient) in Hepes pH 8.2, 30 mM NaCl, 10 ug/ml BSA; fractions lyophilized; ELISA at pH 5.5 and BAFFR:Fas reporter cells with antibody 2.81

Substance: Endogenous BAFF (ligand)
- stoichiometry N [1]: 3
- stoichiometry N [2]: 3
- stoichiometry N [3]: 3
- stoichiometry N [4]: 2.7
- stoichiometry N [5]: 3

Source: paper PMC7677505
